Consider two molecules from patent publication US8808698B2, “Methods for inhibition of lymphangiogenesis and tumor metastasis” (The Regents of the University of California, priority 2006, dated 2014).

Entries after “also recorded” stand apart in the source; their conditions may differ.

One test concerns lymphatic vessels. As to the kind of experiment: Murine lymphangiogenesis and angiogenesis assay in growth factor MATRIGEL plugs. Type of test: in vivo. The following applies: mice, 400 ng growth factor. As to the method:
(§1) Lymphangiogenesis and angiogenesis assays in MATRIGEL were performed as described (Eliceiri et al, 1999, Mol. Cell 4:915) by injecting subcutaneously into wild-type C57B1/6 mice (n=5) 400 μL of cold MATRIGEL containing 400 ng of bFGF, VEGF-A, or VEGF-C (R&D Systems, Minneapolis, Minn.). Mice were then injected twice at day1 and day3 with 200 μl of blocking anti-α4β1 (PS2) or anti-α5β1 (5H10) antibodies, or isotype control antibody. After 7 days, MATRIGEL plugs were removed, embedded in OCT, frozen and sectioned. Thin sections (5 μm) were immunostained with anti-CD31 antibodies.
For quantification, vessel numbers, tumor foci or pixel number in 10 microscopic fields per cryosection (per animal) were quantified and the mean number of vessels+/−s.e.m. for the entire treatment group was determined.

Test [1] concerns lymph nodes. As to the kind of experiment: Lymph node lymphangiogenesis proximal to implanted VEGF-C MATRIGEL
Type of test: in vivo, mice. On the procedure: as §1
(§2) C57BL/6 mice were injected subcutaneously with 350 μl of ice-cold saline or VEGF-C-containing Matrigel (1 μg/ml) proximal to the inguinal lymph node. In parallel, 5×10^5 LLC cells were injected dorsally near the inguinal or brachial lymph nodes. Mice were sacrificed after 1, 7 and 14 days. Mice with stimulated inguinal nodes were also sacrificed after 21 days. Inguinal, brachial and mesenteric lymph nodes were removed and embedded in OCT for cryosectioning and immunohistochemistry.

For the next test, the system named is RFP-LLC cells. As to the kind of experiment: Experimental footpad injection metastasis study (RFP-LLC). It is filed as in vivo, mice. As to the method: Inguinal lymph node lymphangiogenesis was stimulated by injecting mice intradermally above the left inguinal lymph node with 50 μl of saline or VEGF-C (200 ng per mice) every day for 7 days. Mice were inoculated with 10^6 RFP-LLC cells in a volume of 150 μl in the left footpad. Twenty four hours later, mice were sacrificed. Inguinal, brachial and mesenteric lymph nodes were removed and embedded in OCT for cryosectioning and immunofluorescence. RFP-tumor cell and Lyve-1+pixels were quantified on 5 different sections per lymph node.

Test [2] concerns lymph nodes. As to the kind of experiment: Systemic or local VEGF-C injections in normal mice, lymph node lymphangiogenesis. It is filed as in vivo.
A further test has as its system Lewis lung carcinoma. In words: Local VEGF-C stimulation of lymph nodes in LLC tumor-bearing mice. It is filed as in vivo. As to the method: as §2
The test system of a further test is LLC cells. In words: Transwell migration of LLC cells. The following applies: 10, 100 or 500 ng/ml. Type of test: cell-based, murine. On the procedure:
FIG. 29. Analysis of LLC cell expression of integrin α4 and VEGF-R3. A) Expression of VEGF-R3, integrins α5β1 and α4β1 (black lines) on LLC cells was evaluated by flow cytometry. Grey lines depict binding of isotype matched control IgG. While 100% of cells express integrin α5β1, none express α4β1 or VEGF-R3. B) Transwell migration of LLC cells in the presence or absence of serum or VEGF-C at 10, 100 or 500 ng/ml.

In the case of “bFGF: angiogenic growth factor (R&D Systems) [reference compound]”, the “invasion of growth factor saturated MATRIGEL by new lymphatic vessels” value in the test on lymphatic vessels is “new lymphatic vessels invade”.

B1: VEGF-C: lymphangiogenesis-promoting growth factor (R&D Systems) used as stimulus (protein, UniProt P49767 112-227, looked up)
Vascular endothelial growth …: AHYNTEILKSIDNEWRKTQCMPREVCIDVGKEFGVATNTFFKPPCVSVYRCGGCCNSEGLQCMNTSTSYLSKTLFEITVPLSQGPKPVTISFANHTSCRCMSKLDVYRQVHSIIRR
As to B1, in the test on lymphatic vessels, the “invasion of growth factor saturated MATRIGEL by new lymphatic vessels” value was “new lymphatic vessels invade”. Also, in the test with lymph nodes [1] (VEGF-C stimulated lymph nodes), the “lymph node lymphatic vessel density / lymphangiogenesis” value is given as “significant increase”. Also, the lymph node size entry in the test on lymph nodes [1] (lymph nodes proximal to implanted MATRIGEL containing VEGF-C) was “expanded dramatically in size”. Besides, in the test on RFP-LLC cells (RFP-LLC into footpad, 24 h), the “tumor cell retention in the stimulated inguinal lymph node” value is given as “strongly enhanced”; the “tumor cell retention in unstimulated brachial or mesenteric lymph nodes” value is “not and No statistical difference”. Further, the “lymphangiogenesis in stimulated inguinal lymph node” value with RFP-LLC cells (intradermal injections for 7 days, non-tumor bearing mice, versus saline) is recorded as “significantly induced”. In addition, the “lymph node lymphangiogenesis after local injections proximal to a single lymph node” value in the test on lymph nodes [2] (normal mice, local) is “specifically affected this and not other nodes”. Moreover, in the test on lymph nodes [2] (normal mice, systemic), the “lymph node lymphangiogenesis after systemic injections” value is listed as “Widespread lymph node lymphangiogenesis”. Besides, in the test on lymph nodes [2] (versus saline), the “blood vessels within lymph nodes (CD31+ pixels/field)” value is “no significant effect; also recorded: No statistical difference”. Further, the “lymphatic vessel density in draining (inguinal) lymph node” value with Lewis lung carcinoma (local injection, versus saline) was “significantly increased”. Moreover, the “lymphangiogenesis and metastasis to other lymph nodes” value in the test with Lewis lung carcinoma (local stimulation of inguinal node) is recorded as “no effect”. Also, the “primary tumor growth (tumor volume)” value in the test on Lewis lung carcinoma (local stimulation of inguinal node, after 21 days) was “no effect; also recorded: No statistical difference”. Also, the “time at which tumor metastases were induced” value in the test on Lewis lung carcinoma (local stimulation of inguinal node, 21 days for saline treated animals) is not above 14 days. Also, in the test with Lewis lung carcinoma (stimulation of brachial node), the “lymphangiogenesis in stimulated distant (brachial) lymph node” value is “selectively enhanced”, the “metastasis to stimulated distant (brachial) lymph node” value is recorded as “accelerated metastasis by one week” and the “rate of lymphangiogenesis or metastasis to inguinal or mesenteric nodes” value is listed as “without affecting”. In the test on LLC cells, the “LLC cell migration in response to growth factor” value was “do not migrate”.
